Biological target: Celsr3 (UniProt Q91ZI0)
Assay: co-immunoprecipitation, both in same cell
Conditions: reference: Fzd3 wild type; sites T598

Frizzled3 (Fzd3) (from UniProt Q61086) Fzd3 T598A
binding against the reference: weaker
